The results in this text go back to PMC9371678.

The target in the assay is HA-PTH1R_(mTurquoise/mCitrine) (human) (UniProt Q03431).
Chain of UniProt Q03431 (Q03431 27-593): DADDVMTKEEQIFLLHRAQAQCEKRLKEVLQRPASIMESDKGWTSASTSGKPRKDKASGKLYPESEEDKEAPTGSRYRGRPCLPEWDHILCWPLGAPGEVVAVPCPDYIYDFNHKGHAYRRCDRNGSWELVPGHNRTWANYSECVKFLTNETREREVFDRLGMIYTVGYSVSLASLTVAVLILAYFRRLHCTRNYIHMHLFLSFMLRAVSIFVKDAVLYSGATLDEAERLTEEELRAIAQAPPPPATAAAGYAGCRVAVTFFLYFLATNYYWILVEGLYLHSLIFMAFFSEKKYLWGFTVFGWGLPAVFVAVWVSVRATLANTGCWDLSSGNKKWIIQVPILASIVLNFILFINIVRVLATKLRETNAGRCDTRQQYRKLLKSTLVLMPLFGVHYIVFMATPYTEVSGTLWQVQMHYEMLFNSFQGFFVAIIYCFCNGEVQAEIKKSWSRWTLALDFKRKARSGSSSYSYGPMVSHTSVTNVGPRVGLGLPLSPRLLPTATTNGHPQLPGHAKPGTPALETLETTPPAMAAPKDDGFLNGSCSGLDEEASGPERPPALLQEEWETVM

Substance “parathyroid hormone PTH (1–34) (peptide)” returned a pEC50 of the PTH-induced FRET change of the PTH1R (FRET) conformational biosensor (plate reader, HEK293 cells), with RAMP2 (SNAP) coexpressed (1 µg cDNA) of 8.59 and a pEC50 of the PTH-induced FRET change of the PTH1R (FRET) conformational biosensor (plate reader, HEK293 cells), without RAMP2 of 8.73.
